Assay results reported in the nanobody polyreactivity screen of Harvey et al. (2022).

Assay: yeast display, Sf9 membrane polyspecificity reagent, FACS + sequencing; frameworks hold sequencing errors
How it was run: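 Synthetic nanobody libraries on Saccharomyces cerevisiae BJ5465 were galactose-induced for 36–48 hours, stained 1 hour at 4 °C with 10% biotinylated, detergent-solubilized Sf9 membrane reagent and enriched on streptavidin microbeads. FACS then separated cells into low and high (top ~1%) gates by anti-HA (expression) and streptavidin (reagent binding) fluorescence. Genes were colony-PCR amplified, MiSeq 2 × 250 sequenced and CDR-length filtered. A clone's polyreactivity label is that of its gate of origin.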

Sequence | polyreactivity (PSR sort gate)
QVQLVESGGGLVQAGGSLRLSCAASGSTVYVYAMGWYRQAPGKERELVATISSSGAITYYADSVKGRFTISRDNAKNTVYLQMNSLKPEDTAVYYCARTGSLLSQVWYNYWGQGTQVTVSS | low polyreactivity
QVQLVESGGGLVQAGGSLRLSCAASGSTWYYAMGWYRQAPGKERELVATISSGSRTYYADSVKGRFTISRDNAKNTVYLQMNSLKPEDTAVYYCAARESYAELNYWGQGTQVTVSS | high polyreactivity
QVQLVESGGGLVQAGGSLRLSCAASGSTWYYAMGWYRQAPGKERELVATISSGSRTYYADSVKGRFTISRDNAKNTVYLQMNSLKPEDTAVYYCAARRRRFYYQYYRYDYWGQGTQVTVSS | high polyreactivity
QVQLVESGGGLVQAGGSLRLSCAASGSTYAGYAMGWYRQAPGKERELVAAISRRGGSTYYADSVKGRFTISRDNAKNTVYLQMNSLKPEDTAVNYCNRDKYLRDPDYDYWGQGTQVTVSS | low polyreactivity
QVQLVESGGGLVQAGGSLRLSCAASGSTYANAMGWYRQAPGKERELVAAITDNGGRTYYADSVKGRFTISRDNAKNTFYLQMNSLKPEDTAVYYCAARSSVWGQGTQVTVSS | low polyreactivity
QVQLVESGGGLVQAGGSLRLSCAASGSTYARYAMGWYRQAPGKEREFVAAISASGGRTYYADSVKGRFTISRDNAKNTVYLQMNSLKPEDTPVDYCAVRVYAKYFAKYDYWGQGTQVTVSS | high polyreactivity
QVQLVESGGGLVQAGGSLRLSCAASGSTYAYAMGWYRQAPGKEREFVAAITRSGGSTYYADSVKGRFTISRDNAKITVYLQMNSLKPEDTAVYYCRGNSTSWRGSQMDYWGQGTQVTVSS | high polyreactivity
QVQLVESGGGLVQAGGSLRLSCAASGSTYENAMGWYRQAPGKERELVAVISRSGGSTYYADSVKGRFTISRDNAKNTVYLQMNSLKPEDTAVYYCATVYSAWSWVHGYYVAMDYWGQGTQVTVSS | high polyreactivity
QVQLVESGGGLVQAGGSLRLSCAASGSTYERYAMGWYRQAPGKERELVAAISAIGDSTYYADSVKGRITISRDNANNTVYLQMNSLKPEDTAVYYCAARYTRYHIGRGYYYWGQGTQVTVSS | high polyreactivity
QVQLVESGGGLVQAGGSLRLSCAASGSTYFHYAMGWYRQAPGKERELVAAISKSVGTTYYADSVKGRFTISRDNAKNTVYLQMNSLKPEDPAVYYCAADSVITWWAYDYWGQGTQVTVSS | high polyreactivity
QVQLVESGGGLVQAGGSLRLSCAASGSTYPYYAMGWYRQAPGKERELVAAITSSTGRTYYADAVKGRFTISRDNAKNTVYLQMNSLKPEDSAVYYCATYSTSVAYHLYYWGQGTQVTVSS | low polyreactivity
QVQLVESGGGLVQAGGSLRLSCAASGSTYQGNAMGWYRQAPGKERELVAAISRSGGSTYADSVKGRFTISRDNAKNTVYLQMNSLKPEDTAVYYCAAYSGVGYLWFDYWGQGTQVTVSS | low polyreactivity
QVQLVESGGGLVQAGGSLRLSCAASGSTYQNAMGWYRQAPGKEREFVAAISWSGGSTYYADSVKGRFTISRDNAKNTVYLQMNSLKPEDTAVYYCAAYSYFSPRYDYWGQGTQVTVSS | high polyreactivity
QVQLVESGGGLVQAGGSLRLSCAASGSTYRGNAMGWYRQAPGKEREFVAAITVSGGSTYYADSVKGRFTISRDNAKNTVFLQMNSLKPEDTAVYYCAARLTYNYYWGQGTQVTVSS | high polyreactivity
QVQLVESGGGLVQAGGSLRLSCAASGSTYTNAMGWYRQAPGKERELVAAITWSGGTTYYADSVKGRFTISLDNAKNTVYLPMNSLKPEDTAVYYCAAEYRWYSWGQGTQVSVSS | high polyreactivity
QVQLVESGGGLVQAGGSLRLSCAASGSTYTRYAMGLYRQAPGKEMELVATINVSGDRTYYADSVKGRFTISRDNAKNTVYLQMNSLKPEDTAVYYCNKYRYQWPYRRFDYWGQGTQVTVSS | high polyreactivity
QVQLVESGGGLVQAGGSLRLSCAASGSTYYRYDMGWYRQAPGKERELCAAINWNGGTTYYADSVKGRFTISRDNAKNNVYLQMNSLKPEDTAVYYCTARSNSYVYPRLYNYWGQGTQVTVSS | high polyreactivity
QVQLVESGGGLVQAGGSLRLSCAASGSTYYTYAMGWYRQAPGKERELVAAISWSGGTTYYADSVKGRFTISRDNAKNTVSLQMNSLKPEATAVYYCASDRDGILKANVYWGQCTQVTVSS | low polyreactivity
QVQLVESGGGLVQAGGSLRLSCAASGTFAVYTMGWYRQAPGKERELVAAISSGGSTYYADSVKGRFTISRDNAKNTVYLQMNSLKPEDTAVYYCAKVPGRYRADRYWDHYSHDYWGQGTQVTVSS | high polyreactivity
QVQLVESGGGLVQAGGSLRLSCAASGTFAVYTMGWYRQAPGKERELVAAITKSGGSTYYADSVKGRFTISRDNAKNTVYLQMNRLKPEDTAVYYCATRDSPRTKNGYYYWGQGTQVTVSS | high polyreactivity
QVQLVESGGGLVQAGGSLRLSCAASGTFGLYAMGWYRQAPGKERELVAAIRARGGSTYYADSVKGRFTISRDNAKNTLYLQKNSLKPEETAVYYCAAEFWDVALARKQWYDYWGQGTQVTVSS | high polyreactivity
QVQLVESGGGLVQAGGSLRLSCAASGTFSFYAMGWYRQAPGKERELVATIRSGGRTYYADSVKGRFTISRDNAKNTVYFQINSLKPEDTAVYYCAKTGFLGLRQYGYWGQGTQVTVSS | high polyreactivity

Sequence | polyreactivity (PSR sort gate)
QVQLVESGGGLVQAGGSLRLSCAASGTFTGNAMGSYRQAPGKERELVAAITWSGGRTYYADSVKGRFTISRDNAKNTVYLQMNSLKPEDTAVYYCNAADEYLQERFWSDAFDYWGQGTQVTVSS | high polyreactivity
QVQLVESGGGLVQAGGSLRLSCAASGTFVSYVMGWYSQPPGKERELVAAINVRGASTYYADSVKGRFTISRDNAKITVYLQMNTLKPEDTAVYYCATEYVSGPEYDYWGQGTQVTVSS | low polyreactivity
QVQLVESGGGLVQAGGSLRLSCAASGTFVTYMGWYRQAPGKERELVAVISASGDSVKGRFTISRDNAKNTVYLQMNSLNPEDTAVYYCARELYRRVWHHWAYWAAYDYWGQGTQVTVSS | low polyreactivity
QVQLVESGGGLVQAGGSLRLSCAASGTFWWYAMGWYRQAPGKERELVASINRGGSTYYADSVKGRFTISRDNAKNTVYLQMNSLKPEDSAVYYCNARWIGRLTPYRRATYYYWGQGTQVTVSS | high polyreactivity
QVQLVESGGGLVQAGGSLRLSCAASGTFYYNTMGCYRQAPGKERELVAAITSGGRTYADSVKGRFTISRDNAKNTVYLQMNSLKEEDTAVYYCAVDKPYPYRIIIWYEYDYWGQGNQVTVSS | low polyreactivity
QVQLVESGGGLVQAGGSLRLSCAASGTIFIVNAMGWYRQAPGKERELVAAITQGDGSTYYADSVKGRFTISRDNAKNTVYLQMNSLKPEDTAVYYCAVGDLVAYTWQEYNYWGQGTQVNVSS | low polyreactivity
QVQLVESGGGLVQAGGSLRLSCAASGTIFSDYAMGWYRQAPGKERELVATITSRGGSTHYADSVKGRFTISRDNAKNTVYLQMNSLKPEDTAVYYCIVRRLYVYTITSGDVDYDYWGQGTQVTVSS | low polyreactivity
QVQLVESGGGLVQAGGSLRLSCAASGTIFTNAMGCYRQEPGKERQLVAAISSSGGSTYYADSVKGRFTISRDNAKNTVYLQMNSLKPEDTAVYYCAADGEVSLWTGYDYDYWGKGTQVTVSS | low polyreactivity
QVQLVESGGGLVQAGGSLRLSCAASGTIFYINAMGWYRQAPGKERELVAAIRSGGSTNYADSVKGRFTISRDNAKNTVYLQMNSLKPEDTAVYYCNARSRSYVPYYYWGQGTQVTVSS | high polyreactivity
QVQLVESGGGLVQAGGSLRLSCAASGTILRPYAMGWYRQAPGKERELVAAISTSGGRTFYADSVKGRFTISRDNAKNTVYLQMYSLNPEDTAVYYCAAVGYRFGSNYWGQGTQVTVSS | high polyreactivity
QVQLVESGGGLVQAGGSLRLSCAASGTMGWYRQAPGKERELVAAISQSGGSTYYADSVKGRFTISRDNAKNTVYLQMNSLKPEDTAVYYCAVDPRYGHPRRDYWGQGTQVTVSS | low polyreactivity
QVQLVESGGGLVQAGGSLRLSCAASGTTFAGNAMGWYRQAPGKEREFVAAITISGGSTYYADSVKGRFTISRDNAKNTVYLQMNRLKPEDTAVYYCAADYAYYVSLPSRFVYAGYDYWGQGTQVTVSS | low polyreactivity
QVQLVESGGGLVQAGGSLRLSCAASGTTFEVNAMGWYRQAPGKERELVATITRSGGSTYYADSVKGRFTISRDNAKNTVYLQMNSLKPEDTAVYYCNALWELKWGQGTQVTVSS | low polyreactivity
QVQLVESGGGLVQAGGSLRLSCAASGTTFGRNAMGWYRQAPGKERELVAAINSGGGTYYADSVKGRFTISRDNAKNTVYFQMNSLKPEDTAVYYCAAARRYGNYDYWGQGTQVTVSS | low polyreactivity
QVQLVESGGGLVQAGGSLRLSCAASGTTFGRNTMGWYRQAPGKERELVAAISKSGGSTRYADSVKGRFTISRDNAKNTVYLQMNRLKAEDTAFYYCAARVYSLGYGGDYWGQGTQVTVSS | high polyreactivity
QVQLVESGGGLVQAGGSLRLSCAASGTTFSPNAMGWYRQAPGKERELVAAIRGSGSRTYADSVKGRFTISRDNAKNSVYLQMNSLKPEDTAVYYCAAEWIYDTDYWYYSYYYWGQGTQVTVSS | low polyreactivity
QVQLVESGGGLVQAGGSLRLSCAASGTTIGVNAMGWYRQAPGKERDLVAAISRRGASTYYADSVKGRFTISLDNAKNTVYLQMNSLKPEETAVYYCAKAQVHDYIVSMDRYGYWGQGTQVTVSS | low polyreactivity
QVQLVESGGGLVQAGGSLRLSCAASGTTNDYYDMGWYRQAPGKERELDAAISSGGDSTYYADSVMGRFTISRDNAKNTVYLQMNSLKPEDTAVYYCAAAVYYGQSVWYYYWGQGTEVTVSS | high polyreactivity
QVQLVESGGGLVQAGGSLRLSCAASGVNAMGWYRQAPGKEREFVAAITSIGGSTYYADSVKGRFTISRDNAKNTVYLQMNSLKPEDTAVYYCNTDRGPVKVSPLYESWGQGTQVTVSS | low polyreactivity
QVQLVESGGGLVQAGGSLRLSCAASGVTFHGYTMGWYRQAPGKERELVAAITSGGGTNYADSVKGRFTISRDNAKNTVYLQMNSLKPEDTAVYYCAAGFHKRVTPEILYDYWGQGTQVTVSS | low polyreactivity
QVQLVESGGGLVQAGGSLRLSCAASGYIFCKYAMGWYRQARGKERELVAGITRGGTTYYADSVKGRFTISRDNAKNTVYLQMNSLKPEVTAVYYCARDLLGVSSSRYNSWGQGTQVTVSS | high polyreactivity
